Data from PMC2788276 (Protein Science : A Publication of the Protein Society, 2009).

B1: HCoV‐OC43 N protein, residues 233–448 (domain or fragment)
chain: ADQIASLVLAKLGKDATKPQQVTKHTAKEVRQKILNKPRQKRSPNKQCTVQQCFGKRGPNQNFGGGEMLKLGTSDPQFPILAELAPTAGAFFFGSRLELAKVQNLSGNPDEPQKDVYELRYNGAIRFDSTLSGFETIMKVLNENLNAYQQQDGMMNMSPKPQRQRGHKNGQGENDNISVAVPKSRVQQNKSRELTAEDISLLKKMDEPYTEDTSEI

Legend:
cross-linking = target: the molecule itself; test: cross-linking
[1] = target: HCoV-OC43 N1-173 (N-terminal domain) (Human coronavirus OC43, UniProt P33469 1-173); test: SPR
Chain of HCoV-OC43 N1-173 (N-terminal domain) (P33469 1-173): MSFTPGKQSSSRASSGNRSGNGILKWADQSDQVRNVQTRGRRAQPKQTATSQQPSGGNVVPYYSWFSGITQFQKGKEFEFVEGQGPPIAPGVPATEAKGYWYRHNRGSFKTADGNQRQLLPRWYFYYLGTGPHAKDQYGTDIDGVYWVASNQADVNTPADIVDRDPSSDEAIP

[2] = target: HCoV-OC43 N233-300 (central linker) (Human coronavirus OC43, UniProt P33469 233-300); test: SPR
[3] = target: HCoV-OC43 N301-448 (C-terminal domain) (Human coronavirus OC43, UniProt P33469 301-448); test: SPR

Binder	binding result (cross-linking)	Kd [1] [µM]	Kd [2] [µM]	binding result [3]
B1	binds			
UCUAAACUCUAAACUCUAAACUCUAAAC (ssRNA) [(UCUAAAC)4 intergenic repeat RNA]		0.0689 ± 0.0084	0.0641 ± 0.0072	no binding
